The domain aggregation screens of Martell et al. (2025)

Assay: soluble fraction after stress (log2 fold change); higher = more stays soluble; pooled small domains, quantitative proteomics
Settings: stress: 75 degC
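Note: 20 min heating vs room temperature control held 20 min.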

Compared with “HMTIRPEDVELVPAEDGYMQGDVVSNIFKGVHYELEVKANGYDWMVHTTKYVEVGSHVGIKVIPFNIQV”, “HMTISPYTKDDFLKGTKPFEDVYAHKADPFVHDRALEQMTIWAKSVGVNGFKKLYKAYIDSLRIKNKEI” is lower in “soluble fraction (log2)” value: 0.322 for the first, -0.315 for the second.

“HMTKAGVDAWTRGDYAAAVKEWQAQAAKGDADAIFNLGQAFKLGKGVPQDLIKAEQLFGQAAA” and “HMTKDEIIIQSIIDAAKKLMQQYGLNKTTMEDIAKEAGKGKSTLYHYFKSKEEIFDQVINQEID” are within 0.2 log units of each other in “soluble fraction (log2)” value: 0.246 for the first, 0.0589 for the second.

“HMTKEEFLDEIKKELGFMPYEEVIKAEKYFESYFNGSEADEKVIERFGSPKYAAQNYYRTHVAN” and “HMTKEEFLYELKKELSALDSAEATAYNLRYYSDYIDAEIAKGRSEQEVLDELGNPRWLVNSIKESG” are within 0.2 log units of each other in “soluble fraction (log2)” value: 0.029 for the first, -0.139 for the second.

Going from “HMTKGDRIKARREELGLTQTDLAEAISSTKQNIYKYENNIISNIPSDKVEAIAEVLKISPAYLMGWGDE” to “HMTKGFSIQDISLSKSTMTFLQQNKITDLASLLSMSKSQIEGMKGFKPKMIQEIEKNLDKVGLVLAQD”, the “soluble fraction (log2)” value falls from -0.0377 to -0.243.

First: HMTKGVKVEIGTEEASVDLYVVMEYGTPIQKAAYDAQESVRKAIETMTNLHVVRVDVHVQGVSF
Second: HMTKGVWHTVKKGENLYRISLYYEVPQQEIKKANKIETENIVVGQKLFIPNTTKKSPIFALTP
The “soluble fraction (log2)” value of the first is higher: -0.466 for the first, -1.72 for the second.

First: HMTKIDYSINQIYSLRNIENITIVLKDKRSFTGKILKIYWQNGSKIILFTTETRNYKFKEYEISEIYKS
Second: HMTKIEYTEQEFNDFIQAYKNNRKMFPEDYIVKTQVVFINKGFSKSQADMIIAQIETRLRLQGE
The “soluble fraction (log2)” value of the first is higher: -1.02 for the first, -2.91 for the second.

Going from “HMTKIKAIFFDIDGTIRSFKTKTIPENTANTLKKLKEQGIKIFIATGRAPFHTTFLNDLLDFKFDGYITIN” to “HMTKKSLFNQYLDDQKRLDIVTLQKAELVDLHKLADELNIDQYNQLKKNELIFKILQSNPSE”, the “soluble fraction (log2)” value rises from -0.659 to 0.162.

Going from “HMTKNEFLQGLKEELEGRVTHSAIQENIRYYDDYISQEVLKGSTEEEVTESLGGPRIIARTIVDAAYD” to “HMTKPLHELLSQREFQVFTQLAAGRSVGEIAQQLSLSSNTVSTYRARILEKTGTRNDVELALYAIRR”, the “soluble fraction (log2)” value falls from 0.0243 to -2.31.

Going from “HMTKPTLMEVEIKGAIQNPGVYTLKRNSSISKLIKMSGPLLENADTSSISFTHILQDKDVVVIPEIK” to “HMTKQEYLNQLKNELVKQGVADAEDVVTEYEQHFAFKLADGFGEEEIAKKLGDPAAIASQFVG”, the “soluble fraction (log2)” value rises from -0.194 to 0.669.

“HMTKQMELLAQGAAKLSVDLNQRQLDQLQTYYRELVDWNQRMNLTAITQYEEVQVKHFLDSL” and “HMTKRKNTEFRQQQIIEAAAKLIFKYGSEHLTVKRIAAQVGISEAAIYRHFTSKKSILSFLLSHIEE” are within 0.2 log units of each other in “soluble fraction (log2)” value: -0.477 for the first, -0.362 for the second.

Going from “HMTKRTVKSVARKIADFNRERHRMPTYEEMLTLLAVRSKSVVHFWMNKLLQEGILEKDESGHLTFV” to “HMTKSSAYLSAEKLINKKQYSDAIVKLNDALVTDSKNADIYNYLGFSHRKLGKMEDAAFFYNKALE”, the “soluble fraction (log2)” value rises from -0.179 to 0.0234.

Compared with “HMTLDDSFYQKADEIIANHTKEERSLIPIIQDIQAEYRYLPPELLTYVAKEIGITDARAYSVASFYENFS”, “HMTLDEDYFYYTLKAKEGYYRLYKKLGVDRKIIDSLNPNLKEMGLQVGMVIRVPKSQTSDLSVKNSLLVE” is lower in “soluble fraction (log2)” value: -0.521 for the first, -1.64 for the second.

First: HMTLHDLFPQAVEFVSEKEMISTAELQRKLMISYNSAAKIIDQLLHVDFIQKSESAGKYSVLIK
Second: HMTLNTQLFTWKKGVRVGEDDQGNIYYRTKDDKRRWVIFTGETEATKVSPDWHGWLHRTWATPPNK
The “soluble fraction (log2)” value of the first is lower: -2.66 for the first, -2.27 for the second.

First: HMTLPGQDFIRASQLKELIAKYDKQYYEEGVSDISDAEYDRLYEEYLEFENKYPELKDMADAPTKRV
Second: HMTLREQISALIKQGKLTQAKLARETGVNGGALSAWINGKYTGNVETVEEPIKHWMALNERK
The “soluble fraction (log2)” value of the first is higher: 0.659 for the first, -0.342 for the second.

Compared with “HMTLSVRQRMSQIINKIDVSNFTDFTKLFDINEGRLGVAVTFLAILELLKDTMIDVIQNEEFAPLHIKVSS”, “HMTMIIQLDKNITQEQRQFLVEELNRLSISPNFVSTQFTNYIVGIPKKEFDIRLIGNLPGIADIHFV” is lower in “soluble fraction (log2)” value: 0.128 for the first, -1.58 for the second.

First: HMTMKVTADILNMRSEASTNSDIVTKLKKDDELKVIEETKDDDGVTWVKVDFNGQVGFVSKEFLG
Second: HMTMLLEYNVSRSSKWMNKTIMDAEIPDDILIVMIKRNGQVIVPKGSTEILENDILVLSGNNLNEVALG
The “soluble fraction (log2)” value of the first is higher: 0.237 for the first, -3.02 for the second.

Compared with “HMTMNYYDILSIKRDATLEEIQKAYKEKSFQFHPDFNKGISDDSMFRIIKEAYETLSDTEKRNQYDASLNK”, “HMTMQTAEQESRLEQKLIDLSVGIDRFEGYSRPHGQLIASIADRIGTRLGMAAHDRFYMQQAAL” is lower in “soluble fraction (log2)” value: 0.45 for the first, 0.203 for the second.

Compared with “HMTNADRFIGEEAMVIKKIDDINNDGQVKIAGQVWSAVSEDKSPLEEGTIVKVIAIRGVKLVVEPVS”, “HMTNALDMMKTMDSDAYTKYQKISKESSNEDRQLNELKYITNWYAGAVKKNPSMVDDYEKQKEADS” is higher in “soluble fraction (log2)” value: -0.369 for the first, 0.302 for the second.

First: HMTNELTEIFNSIRLTKKQKELLQSNYLSLRETYFLQGKTAFNLKFKNIAGLGKSTKKVLLEFFEESIE
Second: HMTNIDIEKSIKNTITANYDDVLNYHNEDDNKTFASGDSRYSFDYDEKTKTLIVFTNSKVDAVFVDGIKKK
The “soluble fraction (log2)” value of the first is lower: -3.15 for the first, 0.308 for the second.

“HMTNISDYILEEYYKNVYPNDLNTKRIVIPNKYEEYAGKYTYITIARMVTYEHDAKKALKVLHQQAT” and “HMTNKYSSLVIGTVKTIMEEDQYKNLMGPPLKKEIIKQVDKFTNALPIEFDQNDKDFYVKKILINL” are within 0.2 log units of each other in “soluble fraction (log2)” value: -0.307 for the first, -0.377 for the second.

First: HMTNLKALRESKGVSQQTVADYLGITRQAYGNYETGKRQADYAALLRLAAFFGVSVDALLQP
Second: HMTNNDIIRRVRYLFNFSDKQVIELFKLANETVSIEHVSGWLKKEEDPTLIEISDRDLAVFLNGLII
The “soluble fraction (log2)” value of the first is lower: -1.18 for the first, 0.557 for the second.

Compared with “HMTNQEFNEVFKLLLAAYPNTKDKESVATIYFLTIANELTKKEFAEAVVKILKTRKSGFIPQPAEILEVAK”, “HMTNSAGIERFLASGAIDGVGPAMARRIVEHFGTEALRIIESVPHRLREISGIGPKTAEKIASSYMRQ” is higher in “soluble fraction (log2)” value: -2.54 for the first, -1.15 for the second.

Compared with “HMTNTDALINRAAKVVEEINPDKNTGRVSIDGDLWRAKSSSGELIEQNKQVIVISIESTIVTVKI”, “HMTNTWNNIVERNDLFFKKFTNTPFNGKIETYWPNGNLKETGIITDGKKDNLWEYYYENGNPKEVEF” is lower in “soluble fraction (log2)” value: -0.228 for the first, -0.876 for the second.

Going from “HMTNVFSIIGKKALVIKDIDPIHSSGQIKLNGEVWSAETENDEIIKEGSEVEVLKINGVKAIVKLV” to “HMTNVIPKAMAPFNGSTIIADGIKNIKDHIDNLYITVGYKGATLSEHVINKGVSAVFNTTGKGNAWWVYN”, the “soluble fraction (log2)” value rises from -0.664 to 0.343.

First: HMTNVLSEQESKLLERMNKAGLNAEITVKKAAQILNLSESAARNVLNRLVGKGYLTVDTSRLPFLFQR
Second: HMTNVVSKNKAKEIAMNIINDTVLQGQTAATFKEIVKANGVYVVKIEIQGQEYTSYITKDGKIVFPYGVEV
The “soluble fraction (log2)” value of the first is higher: -0.277 for the first, -1.07 for the second.
